From US20060188526A1, “Method for enhancing the immune response to Staphylococcus aureus infection” (priority 2005, published 2006)

Experiments:
[1] = target: T1, C3b bound to S. aureus surface (Homo sapiens, UniProt P01024); experiment: C3-fragments bound to C3b-coated S. aureus with factor H, factor I or both (ELISA, Western blot); type: biochemical
T1 construct: purchased Advance Research Technologies, San Diego, Calif
Method: Opsonization with purified complement components. Washed bacteria (1×10^9 CFU in GVBS^++ buffer) were incubated with 0.35% IVIg for 30 min. at room temperature in order to sensitize the bacteria for activating the classical complement pathway. Antibody-coated bacteria were then incubated in 60% DGVBS^++ buffer with the purified human complement proteins C1, C4, C2, and C3 to generate the classical complement pathway C3-convertase and bind C3b to the S. aureus surface. Bacteria were incubated with C1 (2 μg/ml) at 30° C. for 15 min., and then with C4 (10 μg/ml) at 37° C. for 45 min. Bacteria were then incubated with C2 (0.5 μg/ml) and C3 (10 μg/ml) together at 30° C. for 30 min. C3b-coated staphylococci were then incubated with factor H (40 μg/ml), factor 1 (4 μg/ml), or both factors for 30 min. at 37° C. The bacteria pellet was then sedimented and the supernatants recovered to measure C3-fragments released from the bacteria. The bacteria were then washed and treated with 0.05 ml of 25 mM methylamine (Sigma-Aldrich) for 60 min. at 37° C. to recover C3-fragments bound by ester bonds to the S. aureus surface. The stripped bacteria were sedimented and the supernatants containing previously surface bound C3-fragments were recovered for testing by ELISA and Western blot. […]
(§1) Analysis of surface-bound and released C3-fragments. ELISA was used to quantitate total C3-fragment amount and iC3b amount as follows. […] Plates were washed 3 three times with PBS/Tween buffer and developed with TMB Plus (Accurate Chemical), stopped with 2.5 N H2SO4, and read at 450 nm.
Values for C3-fragments bound and iC3b bound to S. aureus opsonized in serum were calculated subtracting the values obtained with heat inactivated serum from the values obtained with NHS. Methylamine supernatants of surface bound C3-fragments were analyzed by Western blot analysis performed with polyclonal goat anti-human C3 antibody (Advanced Research Technologies) and horseradish peroxidase-labeled rabbit anti-goat antibody (Sigma-Aldrich). Bound antibody was detected by enhanced chemiluminescence.

[2] = target: T1, C3b bound to S. aureus surface; experiment: C3-fragments released from C3b-coated S. aureus with factor H, factor I or both (C3 ELISA, Western blot); type: biochemical
Method: Opsonization with purified complement components. Washed bacteria (1×10^9 CFU in GVBS^++ buffer) were incubated with 0.35% IVIg for 30 min. at room temperature in order to sensitize the bacteria for activating the classical complement pathway. Antibody-coated bacteria were then incubated in 60% DGVBS^++ buffer with the purified human complement proteins C1, C4, C2, and C3 to generate the classical complement pathway C3-convertase and bind C3b to the S. aureus surface. Bacteria were incubated with C1 (2 μg/ml) at 30° C. for 15 min., and then with C4 (10 μg/ml) at 37° C. for 45 min. Bacteria were then incubated with C2 (0.5 μg/ml) and C3 (10 μg/ml) together at 30° C. for 30 min. C3b-coated staphylococci were then incubated with factor H (40 μg/ml), factor 1 (4 μg/ml), or both factors for 30 min. at 37° C. […]
as §1
Values for C3-fragments bound and iC3b bound to S. aureus opsonized in serum were calculated subtracting the values obtained with heat inactivated serum from the values obtained with NHS. […] Bound antibody was detected by enhanced chemiluminescence.

[3] = tested on: C3b-coated S. aureus phagocytosis by human polymorphonuclear leukocytes (PMN); experiment: Phagocytosis assay, C3b-coated S. aureus (purified complement components) incubated with factor H, factor I or both; type: cell-based; details: compared with untreated C3b-coated S. aureus, factor H 40 μg/ml, factor I 4 μg/ml
Method: Bacterial strains and growth. Staphylococcus aureus strain Reynolds, capsule polysaccharide serotype 5, was used in all experiments. This strain has a pattern of C3-fragment deposition similar to other capsule polysaccharide serotype 5 and 8 strains—the serotypes that account for the majority of human S. aureus infections. Mid-logarithmic phase bacteria were grown in Columbia 2% NaCl broth at 37° C. with agitation for 2 hours to an optical densitometry of 0.7 to 1.3 at 600 nm. In midlogarithmic phase growth minimal capsule is expressed by strain Reynolds.
Opsonization with purified complement components. Washed bacteria (1×10^9 CFU in GVBS^++ buffer) were incubated with 0.35% IVIg for 30 min. at room temperature in order to sensitize the bacteria for activating the classical complement pathway. Antibody-coated bacteria were then incubated in 60% DGVBS^++ buffer with the purified human complement proteins C1, C4, C2, and C3 to generate the classical complement pathway C3-convertase and bind C3b to the S. aureus surface. […]
Phagocytosis assay. […] Bacteria and PMN were visualized by fluorescence microscopy using broad wavelength excitation and emission filters that allow visualization at 100× magnification. Microscope slides were blinded to the reader, and 100 neutrophils per slide were counted to determine the percent of PMN phagocytosing bacteria and total number of S. aureus ingested.

T1 sequence (P01024 749-1663): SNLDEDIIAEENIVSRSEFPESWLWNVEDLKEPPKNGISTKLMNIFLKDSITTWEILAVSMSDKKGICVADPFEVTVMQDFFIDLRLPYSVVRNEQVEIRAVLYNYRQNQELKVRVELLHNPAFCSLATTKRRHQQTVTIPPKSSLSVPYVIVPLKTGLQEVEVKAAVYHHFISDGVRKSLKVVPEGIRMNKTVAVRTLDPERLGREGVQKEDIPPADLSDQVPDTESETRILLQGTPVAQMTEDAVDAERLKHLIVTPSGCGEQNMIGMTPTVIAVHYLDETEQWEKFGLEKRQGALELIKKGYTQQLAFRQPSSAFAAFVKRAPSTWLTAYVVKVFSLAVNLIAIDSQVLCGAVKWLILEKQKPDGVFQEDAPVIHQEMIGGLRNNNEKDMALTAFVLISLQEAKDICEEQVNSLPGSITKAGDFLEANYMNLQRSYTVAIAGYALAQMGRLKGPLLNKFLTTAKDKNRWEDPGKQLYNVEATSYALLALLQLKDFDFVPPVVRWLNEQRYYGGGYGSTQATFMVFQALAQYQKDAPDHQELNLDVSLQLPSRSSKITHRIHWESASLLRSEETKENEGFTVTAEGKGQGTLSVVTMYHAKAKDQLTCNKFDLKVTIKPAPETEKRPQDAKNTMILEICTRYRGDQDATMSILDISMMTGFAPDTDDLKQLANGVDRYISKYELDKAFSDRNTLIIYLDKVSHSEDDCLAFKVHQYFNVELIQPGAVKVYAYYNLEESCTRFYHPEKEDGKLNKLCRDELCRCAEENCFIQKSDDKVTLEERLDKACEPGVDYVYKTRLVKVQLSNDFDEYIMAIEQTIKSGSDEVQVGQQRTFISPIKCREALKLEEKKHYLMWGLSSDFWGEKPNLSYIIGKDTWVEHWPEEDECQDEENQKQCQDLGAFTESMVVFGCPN
T1 sequence (P01024 23-667): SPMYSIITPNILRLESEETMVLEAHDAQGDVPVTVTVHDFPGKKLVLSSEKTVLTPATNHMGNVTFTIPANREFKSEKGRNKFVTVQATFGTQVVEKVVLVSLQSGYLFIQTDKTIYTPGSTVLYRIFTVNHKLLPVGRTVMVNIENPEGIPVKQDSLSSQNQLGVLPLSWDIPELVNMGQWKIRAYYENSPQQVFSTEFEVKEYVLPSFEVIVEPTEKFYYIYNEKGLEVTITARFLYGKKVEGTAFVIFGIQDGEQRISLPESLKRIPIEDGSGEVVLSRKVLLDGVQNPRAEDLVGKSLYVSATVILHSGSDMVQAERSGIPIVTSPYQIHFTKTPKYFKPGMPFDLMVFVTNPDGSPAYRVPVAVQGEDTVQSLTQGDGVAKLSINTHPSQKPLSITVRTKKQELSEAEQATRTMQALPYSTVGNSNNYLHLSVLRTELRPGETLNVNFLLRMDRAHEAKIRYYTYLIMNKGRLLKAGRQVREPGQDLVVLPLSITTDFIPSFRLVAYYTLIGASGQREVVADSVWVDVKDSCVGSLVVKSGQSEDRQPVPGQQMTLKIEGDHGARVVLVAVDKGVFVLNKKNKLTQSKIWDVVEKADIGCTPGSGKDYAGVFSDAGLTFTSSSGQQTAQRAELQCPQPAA

B1: factor I: purified human complement regulatory protein factor I, serum enzyme that cleaves C3b to iC3b (protein, UniProt P05156 19-583, looked up)
Complement factor I: KVTYTSQEDLVEKKCLAKKYTHLSCDKVFCQPWQRCIEGTCVCKLPYQCPKNGTAVCATNRRSFPTYCQQKSLECLHPGTKFLNNGTCTAEGKFSVSLKHGNTDSEGIVEVKLVDQDKTMFICKSSWSMREANVACLDLGFQQGADTQRRFKLSDLSINSTECLHVHCRGLETSLAECTFTKRRTMGYQDFADVVCYTQKADSPMDDFFQCVNGKYISQMKACDGINDCGDQSDELCCKACQGKGFHCKSGVCIPSQYQCNGEVDCITGEDEVGCAGFASVTQEETEILTADMDAERRRIKSLLPKLSCGVKNRMHIRRKRIVGGKRAQLGDLPWQVAIKDASGITCGGIYIGGCWILTAAHCLRASKTHRYQIWTTVVDWIHPDLKRIVIEYVDRIIFHENYNAGTYQNDIALIEMKKDGNKKDCELPRSIPACVPWSPYLFQPNDTCIVSGWGREKDNERVFSLQWGEVKLISNCSKFYGNRFYEKEMECAGTYDGSIDACKGDSGGPLVCMDANNVTYVWGVVSWGENCGKPEFPGVYTKVANYFDWISYHVGRPFISQYNV
- decrease of amount of total C3-fragments bound to C3b-coated S. aureus ([1]; C3 ELISA, compared to control bacteria (no factor H or I exposure), FIG. 4B): 58%
- types of C3-fragments bound to the S. aureus surface, Western blot ([1]; compared with untreated C3b-coated S. aureus, FIG. 4C): less C3b and more iC3b
- increase of amount of iC3b bound to S. aureus ([1]; iC3b ELISA, compared with untreated C3b-coated bacteria, FIG. 4A): 75%
- amounts of C3-fragments shed from the S. aureus surface ([2]; C3 ELISA, compared with incubation in buffer alone, FIG. 5A): increased significantly
- form of C3-fragments shed, Western blot with polyclonal anti-C3 antibody ([2]; FIG. 5B): likely iC3b or possibly C3c
- decrease of percent of neutrophils phagocytosing C3b-coated S. aureus ([3]; FIG. 3A): 29%
- decrease of number of C3b-coated S. aureus phagocytosed by 100 neutrophils ([3]; FIG. 3B): 40%
